Here are results for eight proteins from patent US20100087371.

Positions count from the first letter of the chain named.

B1: mTGase from S. mobaraensis (protein)
chain: DSDDRVTPPAEPLDRMPDPYRPSYGRAETVVNNYIRKWQQVYSHRDGRKQQMTEEQREWLSYGCVGVTWVNSGQYPTNRLAFASFDEDRFKNELKNGRPRSGETRAEFEGRVAKESFDEEKGFQRAREVASVMNRALENAHDESAYLDNLKKELANGNDALRNEDARSPFYSALRNTPSFKERNGGNHDPSRMKAVIYSKHFWSGQDRSSSADKRKYGDPDAFRPAPGTGLVDMSRDRNIPRSPTSPGEGFVNFDYGWFGAQTEADADKTVWTHGNHYHAPNGSLGAMHVYESKFRNWSEGYSDFDRGAYVITFIPKSWNTAPDKVKQGWP
B2: Met-mTGase from S. mobaraensis (protein)
chain: MDSDDRVTPPAEPLDRMPDPYRPSYGRAETVVNNYIRKWQQVYSHRDGRKQQMTEEQREWLSYGCVGVTWVNSGQYPTNRLAFASFDEDRFKNELKNGRPRSGETRAEFEGRVAKESFDEEKGFQRAREVASVMNRALENAHDESAYLDNLKKELANGNDALRNEDARSPFYSALRNTPSFKERNGGNHDPSRMKAVIYSKHFWSGQDRSSSADKRKYGDPDAFRPAPGTGLVDMSRDRNIPRSPTSPGEGFVNFDYGWFGAQTEADADKTVWTHGNHYHAPNGSLGAMHVYESKFRNWSEGYSDFDRGAYVITFIPKSWNTAPDKVKQGWP
B3: Mature mTGase from S. ladakanum (protein)
chain: DSDERVTPPAEPLDRMPDPYRPSYGRAETIVNNYIRKWQQVYSHRDGRKQQMTEEQREWLSYGCVGVTWVNSGQYPTNRLAFAFFDEDKYKNELKNGRPRSGETRAEFEGRVAKDSFDEAKGFQRARDVASVMNKALENAHDEGAYLDNLKKELANGNDALRNEDARSPFYSALRNTPSFKDRNGGNHDPSKMKAVIYSKHFWSGQDRSGSSDKRKYGDPEAFRPDRGTGLVDMSRDRNIPRSPTSPGESFVNFDYGWFGAQTEADADKTVWTHGNHYHAPNGSLGAMHVYESKFRNWSDGYSDFDRGAYVVTFVPKSWNTAPDKVKQGWP
B4: AlaPro-mTGase from S. ladakanum (protein)
chain: APDSDERVTPPAEPLDRMPDPYRPSYGRAETIVNNYIRKWQQVYSHRDGRKQQMTEEQREWLSYGCVGVTWVNSGQYPTNRLAFAFFDEDKYKNELKNGRPRSGETRAEFEGRVAKDSFDEAKGFQRARDVASVMNKALENAHDEGAYLDNLKKELANGNDALRNEDARSPFYSALRNTPSFKDRNGGNHDPSKMKAVIYSKHFWSGQDRSGSSDKRKYGDPEAFRPDRGTGLVDMSRDRNIPRSPTSPGESFVNFDYGWFGAQTEADADKTVWTHGNHYHAPNGSLGAMHVYESKFRNWSDGYSDFDRGAYVVTFVPKSWNTAPDKVKQGWP
B5: GlyPro-mTGase from S. ladakanum (protein)
chain: B4 chain with A1G
B6: AlaPro-mTGase from S. mobaraensis (protein)
chain: APDSDDRVTPPAEPLDRMPDPYRPSYGRAETVVNNYIRKWQQVYSHRDGRKQQMTEEQREWLSYGCVGVTWVNSGQYPTNRLAFASFDEDRFKNELKNGRPRSGETRAEFEGRVAKESFDEEKGFQRAREVASVMNRALENAHDESAYLDNLKKELANGNDALRNEDARSPFYSALRNTPSFKERNGGNHDPSRMKAVIYSKHFWSGQDRSSSADKRKYGDPDAFRPAPGTGLVDMSRDRNIPRSPTSPGEGFVNFDYGWFGAQTEADADKTVWTHGNHYHAPNGSLGAMHVYESKFRNWSEGYSDFDRGAYVITFIPKSWNTAPDKVKQGWP
B7: GlyPro-mTGase from S. mobaraensis (protein)
chain: B6 chain with A1G
B8: Met-mTGase from S. ladakanum (protein)
chain: MDSDERVTPPAEPLDRMPDPYRPSYGRAETIVNNYIRKWQQVYSHRDGRKQQMTEEQREWLSYGCVGVTWVNSGQYPTNRLAFAFFDEDKYKNELKNGRPRSGETRAEFEGRVAKDSFDEAKGFQRARDVASVMNKALENAHDEGAYLDNLKKELANGNDALRNEDARSPFYSALRNTPSFKDRNGGNHDPSKMKAVIYSKHFWSGQDRSGSSDKRKYGDPEAFRPDRGTGLVDMSRDRNIPRSPTSPGESFVNFDYGWFGAQTEADADKTVWTHGNHYHAPNGSLGAMHVYESKFRNWSDGYSDFDRGAYVVTFVPKSWNTAPDKVKQGWP

Sequence of hGHQ141N, P01241 (P01241 27-217 Q167N): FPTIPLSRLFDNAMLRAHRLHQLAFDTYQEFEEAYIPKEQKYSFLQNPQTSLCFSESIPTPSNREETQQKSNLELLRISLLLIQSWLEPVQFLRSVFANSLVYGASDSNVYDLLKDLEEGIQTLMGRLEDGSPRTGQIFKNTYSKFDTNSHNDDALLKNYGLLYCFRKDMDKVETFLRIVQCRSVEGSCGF

One data set deals with hGHQ40N, P01241.
Sequence of hGHQ40N, P01241 (P01241 27-217 Q66N): as the sequence (P01241 27-217 Q167N) above, with Q40N, N141Q counted along it
In the case of B1, the Activity towards hGHQ40N (RFU/sec/µg), dansyl-cadaverine incorporation was 3.35 RFU/sec/µg.
The same measure, in the same setting: the same measure for B2: 5.44 RFU/sec/µg; for B3: 3.55 RFU/sec/µg; for B4: 6.91 RFU/sec/µg.
On the same count and under the same terms, the same measure for B5: 4.25 RFU/sec/µg; for B6: 5.05 RFU/sec/µg; for B7: 4.28 RFU/sec/µg.
For B8, the Activity towards hGHQ40N (RFU/sec/µg), dansyl-cadaverine incorporation is 4.74 RFU/sec/µg.

A further data set concerns the target hGHQ141N, P01241.
Protein B1 registered an Activity towards hGHQ141N (RFU/sec/µg), dansyl-cadaverine incorporation of 0.98 RFU/sec/µg.
Protein B2 returned an Activity towards hGHQ141N (RFU/sec/µg), dansyl-cadaverine incorporation of 1.24 RFU/sec/µg.
Same read-out and setting: the same measure for B3: 0.63 RFU/sec/µg; for B4: 1.02 RFU/sec/µg.
For B5, the Activity towards hGHQ141N (RFU/sec/µg), dansyl-cadaverine incorporation is 0.48 RFU/sec/µg.
In turn, B6 had an Activity towards hGHQ141N (RFU/sec/µg), dansyl-cadaverine incorporation of 1.56 RFU/sec/µg.
On the same count and under the same terms, with B7 the figure was 1.13 RFU/sec/µg; with B8, 0.8 RFU/sec/µg.
